± gives the uncertainty stated by the source.

This data set can be described thus: amyloid nucleation score (Sup35N fusion, yeast selection) (log enrichment); library NNK2; higher = more nucleation; inactive = no reads after selection. An outline of the steps: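 Plasmid inserts were Illumina-sequenced at input and output from psi-negative yeast expressing Sup35N fused to peptides of 20 random codons. The yeast were induced with 100 μM copper sulfate for 24 hours and grown 7 days at 30°C on medium lacking adenine and uracil, and sequences with under 100 input reads were excluded. Nucleation score is the DiMSum log enrichment of output over input reads, centred on the mode score of non-aggregating sequences.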

For the substance DDSFGVAVMKVWEMRGWSAL, the amyloid nucleation score was 1.16 ± 0.27.

As to LEGMFLPGFFSCVRFLWL, the amyloid nucleation score was -1.51 ± 0.78.

For VTVKYRVVTDVLRTMRNDSV, the amyloid nucleation score is 0.297 ± 0.34.

CLVVHFPVCQQAKKDCDFRY yielded an amyloid nucleation score of 4.53 ± 0.051.

With DFSIQWCTSSINYVLYFAI, the amyloid nucleation score was -1.89 ± 0.44.

As for QKYRVL, the amyloid nucleation score is -0.611 ± 0.32.

Take CVICDNYFILEAVF: the amyloid nucleation score was -0.771 ± 1.1.

For WRSDLAVGFYKEMHSRRING, the amyloid nucleation score is -0.992 ± 0.36.

As for SLSSGHETVR, the amyloid nucleation score stood at 3.69 ± 0.15.

With ITVFILDRYFGICV, the amyloid nucleation score entry is “inactive”.

With SGGHNIVLMI, the amyloid nucleation score entry is “inactive”.

Turning to SVVLCTAFVQPC, the amyloid nucleation score came out at 0.158 ± 0.45.

NMFTETDRILVLFIRCLVDC: the amyloid nucleation score came to 0.305 ± 1.

DGPWGSMDTRYNSS gave an amyloid nucleation score of 0.479 ± 0.74.

As for SKCNGFVVALMLVFTSSELD, the amyloid nucleation score entry is “inactive”.

CRFKVQQMTMENLAQMLVKG had an amyloid nucleation score of 1.15 ± 0.68.

In turn, VAQVWLSNVVMYLRRAENLT came in with an amyloid nucleation score of 0.214 ± 0.26.

For FLCYKISSFVSICKQQEAHA, the amyloid nucleation score was -0.064 ± 1.1.

ANTCVPPLLRMFPLRGRTHI: the amyloid nucleation score is -0.184 ± 1.1.

As to GDVQLRGMHESPYSPPSQGR, the amyloid nucleation score was -0.127 ± 0.49.

Regarding IFKQVTIYLYGGRSLLGSRR, the amyloid nucleation score was -0.507 ± 0.54.

AFSVFSWSFQWQTSCWQICE had an amyloid nucleation score of 5.022 ± 0.038.

With RDNFLNEY, the amyloid nucleation score was -0.953 ± 0.36.

SNVWAQ returned an amyloid nucleation score of 0.571 ± 0.57.

LKNFNLRIMTTPLNCNCNTY: the amyloid nucleation score is -0.434 ± 0.29.

For NSFFGLTVSKEEYLCFFYMF, the amyloid nucleation score entry was “inactive”.

Take DSSSCYMYLCTGNYPDNFNF: the amyloid nucleation score came out at 4.5 ± 0.084.

SFFFMKSWSGRPPIQLGV: the amyloid nucleation score was -0.113 ± 0.65.

In the case of IYPDKSFMALFPMVIDFYTQ, the amyloid nucleation score was -2.19 ± 0.62.

Consider TYKCLTRATKGRNHVFRFCV, for which the amyloid nucleation score stood at 1.08 ± 0.15.

Consider QCKVQCKEWVYNVFAKLQDS, for which the amyloid nucleation score is -0.927 ± 1.1.

For GCGGAHY, the amyloid nucleation score was -0.633 ± 0.29.

For the substance RLGWNGE, the amyloid nucleation score was -0.709 ± 0.49.

For the substance WFMRDMEYFPDGLGDYG, the amyloid nucleation score result was “inactive”.

The substance YCLVSIKMCYGYVVGSLVGW had an amyloid nucleation score of 2.63 ± 0.068.

As to LFGTNFYVQDNIVKGRVLIM, the amyloid nucleation score entry was “inactive”.

Consider CSVYVCQLSLCCSVY, for which the amyloid nucleation score was 6.426 ± 0.06.

For SMLGKRIFYRCSRLMHNF, the amyloid nucleation score is -0.175 ± 0.27.

LECVT had an amyloid nucleation score of 0.078 ± 0.74.

For FWYFPDIIWG, the amyloid nucleation score entry is “inactive”.

Regarding CLSSSSVVALGNRLETWIYA, the amyloid nucleation score worked out at 2.73 ± 0.086.

ILVLW: the amyloid nucleation score was -0.022 ± 0.46.

QGSKDRSYINKYRDRFCLTD: the amyloid nucleation score is -0.304 ± 1.1.

Regarding REFLCCGN, the amyloid nucleation score was 3.36 ± 0.075.

On to MGPDMYVCKVWLGAVAYEMG, for which the amyloid nucleation score stood at 1.95 ± 0.4.

On to PIFSSKLSGRGR, for which the amyloid nucleation score is -0.059 ± 0.55.

In the case of SARVSWGCWHFAMYSRCIRQ, the amyloid nucleation score result was “inactive”.

NSYTFLNT: the amyloid nucleation score result was “inactive”.

For the substance QSRQFLSVYFYLFFLFFSFL, the amyloid nucleation score result is “inactive”.

Turning to IYIGLCLRDYILDNMALMRQ, the amyloid nucleation score is -0.721 ± 0.32.

Consider KEPYHNYI, for which the amyloid nucleation score is 0.179 ± 0.56.

Consider VREYYRVERGSFGRISGGCN, for which the amyloid nucleation score was -0.748 ± 0.78.

FCFFSLVRLYKGYRSSINLA: the amyloid nucleation score entry is “inactive”.

With PEGPERFVFATWPRMHMPSY, the amyloid nucleation score entry is “inactive”.

Regarding CSLLGNFYILGYWATFMASD, the amyloid nucleation score was -1.57 ± 0.53.

On to YFRLLISCQNRLLVRKLRAA, for which the amyloid nucleation score is -0.021 ± 0.79.

In turn, GWSMCRVSRLTMLVSVVFFC came in with an amyloid nucleation score of 0.377 ± 0.26.

In turn, ANRNRYNLHWDMG registered an amyloid nucleation score of 0.946 ± 0.6.

EFVISKNSVPSPCRCW displayed an amyloid nucleation score of 0.382 ± 0.8.

Turning to DMCLW, the amyloid nucleation score was -0.625 ± 0.33.

As for VNIVSIVYKGDNN, the amyloid nucleation score was 7.72 ± 0.075.

Substance DVLRLTQTANLLCSSALRSA registered an amyloid nucleation score of 1.07 ± 0.12.

Consider KWMLHSVR, for which the amyloid nucleation score was 0.772 ± 0.22.

LQTQFTAVC had an amyloid nucleation score of 0.27 ± 0.22.

With NETLSTCCLYHFKG, the amyloid nucleation score turned out to be 4.04 ± 0.046.

LRMNYIAAVHSCAVLHHFNA came in with an amyloid nucleation score of 3.13 ± 0.073.

With ADFFVLDMWLTYCMKTLFSC, the amyloid nucleation score is -1.27 ± 0.48.

On to RIYNYWTIARKFFRV, for which the amyloid nucleation score was -1.24 ± 0.55.

As to FEWSTGCG, the amyloid nucleation score entry is “inactive”.

HYWIVRLDAWVSQSVRWCNP displayed an amyloid nucleation score of 10.95 ± 0.079.

Consider YQMADVPLNRMGHYPVYEGW, for which the amyloid nucleation score was -0.845 ± 0.76.

Turning to GQTIL, the amyloid nucleation score entry is “inactive”.

In the case of SQLVMHYKQVC, the amyloid nucleation score was 1.82 ± 0.14.

With GLPYVSMINLHASYTERMVW, the amyloid nucleation score was -0.687 ± 0.64.

Take SSVQNCSVCVGGPMYREFSW: the amyloid nucleation score was determined as 4.994 ± 0.042.

With LRKVLW, the amyloid nucleation score is -0.657 ± 0.79.

Take GWCRYLKDLYI: the amyloid nucleation score was -1.1 ± 0.36.

In turn, CNHFMTFRWWLVEQAGSMLA had an amyloid nucleation score of 0.044 ± 1.1.

Substance ELCRCITFGLVCTFACYWVC displayed an amyloid nucleation score of 0.592 ± 0.2.

In turn, FCMVGLCMCGRQEMCGSTDS returned an amyloid nucleation score of 5.99 ± 0.062.

Turning to VEGVFLISMPPWPFYRLPSR, the amyloid nucleation score came to 0.961 ± 0.81.

Regarding LDRDVVYTCVDCVFGVGILK, the amyloid nucleation score is -1.19 ± 0.75.

Consider FLSLLR, for which the amyloid nucleation score was -1.05 ± 0.42.

As for LNSRS, the amyloid nucleation score was -0.436 ± 0.76.

With TVLPAVCYGVLNSRFRVTME, the amyloid nucleation score result is “inactive”.

Substance TGFSLVFSWFFLNG gave an amyloid nucleation score of 3.68 ± 0.099.

As for WFMSIMSKYCRVSF, the amyloid nucleation score was -0.149 ± 0.79.

Consider VIKKQCCHTYSVLTFRILNC, for which the amyloid nucleation score was found to be 0.151 ± 0.63.

Take SLKEESFESVMNVG: the amyloid nucleation score came out at 3.87 ± 0.059.

On to CGARRGCDSWTSSTAGKSVG, for which the amyloid nucleation score was determined as 1.16 ± 0.61.

WMIIVA had an amyloid nucleation score of 0.582 ± 0.54.

On to WSMVQLPFSFIYPRGYLNMG, for which the amyloid nucleation score was -0.615 ± 0.64.

In turn, LSVEFARYTG had an amyloid nucleation score of 1.25 ± 0.15.

GTRGVVLISMSWRVDLHWKP: the amyloid nucleation score entry is “inactive”.

Take KVISSVSEPLSKKEDYE: the amyloid nucleation score is -0.706 ± 0.3.

KFFMPTYN showed an amyloid nucleation score of 1.58 ± 0.17.

In turn, SKFHIVIWSSAFFGCNCRLA had an amyloid nucleation score of 6.78 ± 0.079.

In turn, PYGFRVFTLWMLKRDSS yielded an amyloid nucleation score of 0.92 ± 0.57.

For KVVGGLVLHGSL, the amyloid nucleation score entry is “inactive”.

The substance DHRVLQWLTAPY registered an amyloid nucleation score of 0.353 ± 0.36.

In the case of CSDCDSRMC, the amyloid nucleation score is -0.41 ± 0.42.

Take YMLMMALFQRC: the amyloid nucleation score was 2.75 ± 0.15.

VDVPMNMIRWSQCNQ yielded an amyloid nucleation score of 1.22 ± 0.59.

LLGISLLSLWTFGYLSEIVV came in with an amyloid nucleation score of 0 ± 0.8.

For YADPFSERYNFSALVFPFNI, the amyloid nucleation score result is “inactive”.

Take LMLIVQDPCLSEINFKLDSG: the amyloid nucleation score is 4.59 ± 0.11.

YRSAYFMFTVDHFGLELFFL showed an amyloid nucleation score of 2.45 ± 0.12.

NRYVFLGHCVPVRGATHFLV showed an amyloid nucleation score of 0.173 ± 1.1.

Turning to HSNPYRKLIQLTMTGITGTV, the amyloid nucleation score stood at 0.033 ± 0.48.

YVFLWWLKFCFGYH: the amyloid nucleation score result is “inactive”.

Consider CLYCVMASQWGCFGLVESVT, for which the amyloid nucleation score is 1.73 ± 0.47.

RSVPYSLCSMQLCTFHFEHS showed an amyloid nucleation score of 8.384 ± 0.028.

As to VLRGSFKGFFYRWIKCGFEW, the amyloid nucleation score was -1.24 ± 0.64.

Take FVGCVNLRLCSSITTAWSSL: the amyloid nucleation score stood at 8.346 ± 0.046.

Substance NIYADNARVWLPRGDRGLEW came in with an amyloid nucleation score of 0.799 ± 0.74.

GEDCWRPPVR came in with an amyloid nucleation score of 0.559 ± 0.5.

For the substance RSMDPCRLLSELIRRT, the amyloid nucleation score amounted to 0.938 ± 0.32.

As for RFCAMTYERLCVFVIF, the amyloid nucleation score stood at 0.197 ± 0.4.

For the substance LWNSIDNS, the amyloid nucleation score entry was “inactive”.

Take LWLGLFGCVVLHGFRIKMAL: the amyloid nucleation score turned out to be 0.251 ± 0.35.

On to NKSLFMKFCVSLFRLGSYVT, for which the amyloid nucleation score was -0.618 ± 0.48.

LHLFIVGRKWSGDESAFLYA: the amyloid nucleation score came to 0.154 ± 0.5.

LIQRVRGCWTSYVYGGVWSR: the amyloid nucleation score came to 1.66 ± 0.34.

Take MRTKGIRQADVFCESYRFNT: the amyloid nucleation score was -0.029 ± 0.65.

In the case of YMYFVFIRSSKSVMIKDVHC, the amyloid nucleation score entry is “inactive”.

Take LRAVWATVIVSVAMSVSCPK: the amyloid nucleation score came out at 5.07 ± 0.07.

On to CFMDFQWHMRSHG, for which the amyloid nucleation score is -0.265 ± 0.3.

With FVCPFVVCYAGIGGRGGYVM, the amyloid nucleation score is 0.173 ± 1.1.

As to SMWWY, the amyloid nucleation score is -0.505 ± 1.1.

In turn, TLFSMVNSTLNGWWIMT had an amyloid nucleation score of 6.84 ± 0.061.

As to FFLNVFDIMRILLYN, the amyloid nucleation score result is “inactive”.

On to QKYWCDFSNK, for which the amyloid nucleation score result is “inactive”.

As for LNGCGVLRPVR, the amyloid nucleation score was found to be 5.89 ± 0.067.

Consider LYIASSSLHCGLDVAW, for which the amyloid nucleation score is -0.298 ± 0.49.

YIFGSCGVYLFPPPAKF registered an amyloid nucleation score of 6.88 ± 0.078.

On to EGRHNV, for which the amyloid nucleation score result is “inactive”.

On to SLCLRRCMKNKSKQMTMVWR, for which the amyloid nucleation score was -0.247 ± 0.53.

In the case of RTRSSYGVVLKIRKWCPEVA, the amyloid nucleation score was 1.18 ± 0.61.

Turning to GNHSAVAPS, the amyloid nucleation score is -0.677 ± 0.38.

With IDCRELFVSLQVNRMLE, the amyloid nucleation score came out at 0.234 ± 0.49.

Substance LTSMRRCPGVYVGNCGVAGR came in with an amyloid nucleation score of 1 ± 0.35.
